T1: FcγRIIa type R extracellular domain with C-terminal His tag (human, UniProt P12318 34-217)
T1 construct: extracellular domain; also called FcgRIIaR; FcγRIIaR
T1 sequence (looked up): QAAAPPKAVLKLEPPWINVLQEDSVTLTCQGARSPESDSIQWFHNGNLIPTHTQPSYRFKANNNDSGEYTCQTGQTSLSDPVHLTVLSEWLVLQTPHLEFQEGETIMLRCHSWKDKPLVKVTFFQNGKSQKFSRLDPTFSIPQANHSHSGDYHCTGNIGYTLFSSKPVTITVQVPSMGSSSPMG


molecular target: T2, FcγRIa extracellular domain with C-terminal His tag (human, UniProt P12314 16-292); assay: SPR (Biacore)
T2 construct: also called FcgRIa
T2 sequence (P12314 16-292): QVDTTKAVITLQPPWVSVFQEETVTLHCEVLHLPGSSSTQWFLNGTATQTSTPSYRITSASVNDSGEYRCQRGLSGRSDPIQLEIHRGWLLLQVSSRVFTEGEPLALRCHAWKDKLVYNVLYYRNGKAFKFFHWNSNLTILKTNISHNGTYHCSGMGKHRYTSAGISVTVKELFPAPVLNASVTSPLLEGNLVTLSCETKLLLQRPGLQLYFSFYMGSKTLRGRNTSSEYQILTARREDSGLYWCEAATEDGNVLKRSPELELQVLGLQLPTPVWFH
From the text: (§1) IL6R-L was utilized as the common antibody L chain for all of the antibodies, the antibodies were expressed and purified according to the method of Reference Example 1, and binding to each of the FcγRs (FcγRIa, FcγRIIa H type, FcγRIIa R type, FcγRIIb, and FcγRIIIa V type) was comprehensively evaluated by the method of Reference Example 2.
(§2) Furthermore, KD(IIaR)/KD(IIb) and KD(IIaH)/KD(IIb) in the table respectively represent the value obtained by dividing the KD value of each variant for FcγRIIaR by the KD value of each variant for FcγRIIb, and the value obtained by dividing the KD value of each variant for FcγRIIaH by the KD value of each variant for FcγRIIb. KD(IIb) of the parent polypeptide/KD(IIb) of the altered polypeptide refers to the value obtained by dividing the KD value of the parent polypeptide for FcγRIIb by the KD value of each variant for FcγRIIb.

Row | Binder | Kd [µM]
1 | IL6R-BP203/IL6R-L (antibody, human IgG1, kappa, G237D/P238D/P271G/A330R (EU) in IL6R-B3; copies: 2 + 2) heavy: QVQLQESGPGLVKPSETLSLTCAVSGHSISHDHAWSWVRQPPGEGLEWIGFISYSGITNYNPSLQGRVTISRDNSKNTLYLQMNSLRAEDTAVYYCARSLARTTAMDYWGEGTLVTVSSASTKGPSVFPLAPSSKSTSGGTAALGCLVKDYFPEPVTVSWNSGALTSGVHTFPAVLQSSGLYSLSSVVTVPSSSLGTQTYICNVNHKPSNTKVDKKVEPKSCDKTHTCPPCPAPELLGDDSVFLFPPKPKDTLMISRTPEVTCVVVDVSHEDGEVKFNWYVDGVEVHNAKTKPREEQYNSTYRVVSVLTVLHQDWLNGKEYKCKVSNKALPRPIEKTISKAKGQPREPQVYTLPPSRDELTKNQVSLTCLVKGFYPSDIAVEWESNGQPENNYKTTPPVLDSDGSFFLYSKLTVDKSRWQQGNVFSCSVMHEALHNHYTQESLSLSP light: not shown | 0.18

molecular target: T1, FcγRIIa type R extracellular domain …; assay: SPR (Biacore)
From the text: as §1, §2

Row | Binder | Kd [µM]
2 | IL6R-BP203/IL6R-L (antibody, human IgG1, kappa, G237D/P238D/P271G/A330R (EU) in IL6R-B3; copies: 2 + 2) heavy: QVQLQESGPGLVKPSETLSLTCAVSGHSISHDHAWSWVRQPPGEGLEWIGFISYSGITNYNPSLQGRVTISRDNSKNTLYLQMNSLRAEDTAVYYCARSLARTTAMDYWGEGTLVTVSSASTKGPSVFPLAPSSKSTSGGTAALGCLVKDYFPEPVTVSWNSGALTSGVHTFPAVLQSSGLYSLSSVVTVPSSSLGTQTYICNVNHKPSNTKVDKKVEPKSCDKTHTCPPCPAPELLGDDSVFLFPPKPKDTLMISRTPEVTCVVVDVSHEDGEVKFNWYVDGVEVHNAKTKPREEQYNSTYRVVSVLTVLHQDWLNGKEYKCKVSNKALPRPIEKTISKAKGQPREPQVYTLPPSRDELTKNQVSLTCLVKGFYPSDIAVEWESNGQPENNYKTTPPVLDSDGSFFLYSKLTVDKSRWQQGNVFSCSVMHEALHNHYTQESLSLSP light: not shown | 0.99

molecular target: T3, FcγRIIIa type V extracellular domain, C-terminal His tag (human, UniProt P08637 17-208); assay: SPR (Biacore), antibody captured on chip, FcγR extracellular domain as analyte; 1:1 kinetic fit or Equation 2 for weak binding
T3 construct: extracellular domain; also called FcgRIIIaV; FcγRIIIaV; not shown: His tag at the C terminus
T3 sequence (P08637 17-208 F176V): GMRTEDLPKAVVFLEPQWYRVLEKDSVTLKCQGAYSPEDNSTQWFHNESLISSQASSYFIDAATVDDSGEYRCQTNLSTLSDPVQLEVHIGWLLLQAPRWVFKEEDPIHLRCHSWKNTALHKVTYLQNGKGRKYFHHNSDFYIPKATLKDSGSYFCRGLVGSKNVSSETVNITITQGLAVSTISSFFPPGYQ
From the text: as §1, §2

Row | Binder | Kd [µM]
3 | IL6R-BP213/IL6R-L (antibody, human IgG1, kappa, Anti-human IL-6 receptor IgG1) heavy: QVQLQESGPGLVKPSETLSLTCAVSGHSISHDHAWSWVRQPPGEGLEWIGFISYSGITNYNPSLQGRVTISRDNSKNTLYLQMNSLRAEDTAVYYCARSLARTTAMDYWGEGTLVTVSSASTKGPSVFPLAPSSKSTSGGTAALGCLVKDYFPEPVTVSWNSGALTSGVHTFPAVLQSSGLYSLSSVVTVPSSSLGTQTYICNVNHKPSNTKVDKKVEPKSCDKTHTCPPCPAPDLLGGDSVFLFPPKPKDTLMISRTPEVTCVVVDVSDEDGEVKFNWYVDGVEVHNAKTKPREEQYNSTYRVVSVLTVLHQDWLNGKEYKCKVSNKALPRPIEKTISKAKGQPREPQVYTLPPSRDELTKNQVSLTCLVKGFYPSDIAVEWESNGQPENNYKTTPPVLDSDGSFFLYSKLTVDKSRWQQGNVFSCSVMHEALHNHYTQESLSLSP light: not shown | 63
4 | IL6R-BP207/IL6R-L (antibody, human IgG1, kappa, Anti-human IL-6 receptor IgG1) heavy: QVQLQESGPGLVKPSETLSLTCAVSGHSISHDHAWSWVRQPPGEGLEWIGFISYSGITNYNPSLQGRVTISRDNSKNTLYLQMNSLRAEDTAVYYCARSLARTTAMDYWGEGTLVTVSSASTKGPSVFPLAPSSKSTSGGTAALGCLVKDYFPEPVTVSWNSGALTSGVHTFPAVLQSSGLYSLSSVVTVPSSSLGTQTYICNVNHKPSNTKVDKKVEPKSCDKTHTCPPCPAPDLLGGDSVFLFPPKPKDTLMISRTPEVTCVVVDVSHEDPEVKFNWYVDGVEVHNAKTKPREEQYNSTYRVVSVLTVLHQDWLNGKEYKCKVSNKALPRPIEKTISKAKGQPREPQVYTLPPSRDELTKNQVSLTCLVKGFYPSDIAVEWESNGQPENNYKTTPPVLDSDGSFFLYSKLTVDKSRWQQGNVFSCSVMHEALHNHYTQESLSLSP light: not shown | 65
5 | IL6R-BP203/IL6R-L (antibody, human IgG1, kappa, Anti-human IL-6 receptor IgG1) heavy: QVQLQESGPGLVKPSETLSLTCAVSGHSISHDHAWSWVRQPPGEGLEWIGFISYSGITNYNPSLQGRVTISRDNSKNTLYLQMNSLRAEDTAVYYCARSLARTTAMDYWGEGTLVTVSSASTKGPSVFPLAPSSKSTSGGTAALGCLVKDYFPEPVTVSWNSGALTSGVHTFPAVLQSSGLYSLSSVVTVPSSSLGTQTYICNVNHKPSNTKVDKKVEPKSCDKTHTCPPCPAPELLGDDSVFLFPPKPKDTLMISRTPEVTCVVVDVSHEDGEVKFNWYVDGVEVHNAKTKPREEQYNSTYRVVSVLTVLHQDWLNGKEYKCKVSNKALPRPIEKTISKAKGQPREPQVYTLPPSRDELTKNQVSLTCLVKGFYPSDIAVEWESNGQPENNYKTTPPVLDSDGSFFLYSKLTVDKSRWQQGNVFSCSVMHEALHNHYTQESLSLSP light: not shown | 72
6 | IL6R-BP197/IL6R-L (antibody, human IgG1, kappa, Anti-human IL-6 receptor IgG1) heavy: QVQLQESGPGLVKPSETLSLTCAVSGHSISHDHAWSWVRQPPGEGLEWIGFISYSGITNYNPSLQGRVTISRDNSKNTLYLQMNSLRAEDTAVYYCARSLARTTAMDYWGEGTLVTVSSASTKGPSVFPLAPSSKSTSGGTAALGCLVKDYFPEPVTVSWNSGALTSGVHTFPAVLQSSGLYSLSSVVTVPSSSLGTQTYICNVNHKPSNTKVDKKVEPKSCDKTHTCPPCPAPDYLGDDSVFLFPPKPKDTLMISRTPEVTCVVVDVSDEDGEVKFNWYVDGVEVHNAKTKPREEQDNSTYRVVSVLTVLHQDWLNGKEYKCKVSNDALPKPIEKTISKAKGQPREPQVYTLPPSRDELTKNQVSLTCLVKGFYPSDIAVEWESNGQPENNYKTTPPVLDSDGSFFLYSKLTVDKSRWQQGNVFSCSVMHEALHNHYTQESLSLSP light: not shown | 33
7 | IL6R-BP199/IL6R-L (antibody, human IgG1, kappa, Anti-human IL-6 receptor IgG1) heavy: QVQLQESGPGLVKPSETLSLTCAVSGHSISHDHAWSWVRQPPGEGLEWIGFISYSGITNYNPSLQGRVTISRDNSKNTLYLQMNSLRAEDTAVYYCARSLARTTAMDYWGEGTLVTVSSASTKGPSVFPLAPSSKSTSGGTAALGCLVKDYFPEPVTVSWNSGALTSGVHTFPAVLQSSGLYSLSSVVTVPSSSLGTQTYICNVNHKPSNTKVDKKVEPKSCDKTHTCPPCPAPDLLGGDSVFLFPPKPKDTLMISRTPEVTCVVVDVSHEDPEVKFNWYVDGVEVHNAKTKPREEQYNSTYRVVSVLTVLHQDWLNGKEYKCKVSNDALPRPIEKTISKAKGQPREPQVYTLPPSRDELTKNQVSLTCLVKGFYPSDIAVEWESNGQPENNYKTTPPVLDSDGSFFLYSKLTVDKSRWQQGNVFSCSVMHEALHNHYTQESLSLSP light: not shown | 61
8 | IL6R-BP196/IL6R-L (antibody, human IgG1, kappa, Anti-human IL-6 receptor IgG1) heavy: QVQLQESGPGLVKPSETLSLTCAVSGHSISHDHAWSWVRQPPGEGLEWIGFISYSGITNYNPSLQGRVTISRDNSKNTLYLQMNSLRAEDTAVYYCARSLARTTAMDYWGEGTLVTVSSASTKGPSVFPLAPSSKSTSGGTAALGCLVKDYFPEPVTVSWNSGALTSGVHTFPAVLQSSGLYSLSSVVTVPSSSLGTQTYICNVNHKPSNTKVDKKVEPKSCDKTHTCPPCPAPEYLGGDSVFLFPPKPKDTLMISRTPEVTCVVVDVSDEDGEVKFNWYVDGVEVHNAKTKPREEQYNSTYRVVSVLTVLHQDWLNGKEYKCKVSNAALPKPIEKTISKAKGQPREPQVYTLPPSRDELTKNQVSLTCLVKGFYPSDIAVEWESNGQPENNYKTTPPVLDSDGSFFLYSKLTVDKSRWQQGNVFSCSVMHEALHNHYTQESLSLSP light: not shown | 51
9 | IL6R-BP208/IL6R-L (antibody, human IgG1, kappa, Anti-human IL-6 receptor IgG1) heavy: QVQLQESGPGLVKPSETLSLTCAVSGHSISHDHAWSWVRQPPGEGLEWIGFISYSGITNYNPSLQGRVTISRDNSKNTLYLQMNSLRAEDTAVYYCARSLARTTAMDYWGEGTLVTVSSASTKGPSVFPLAPSSKSTSGGTAALGCLVKDYFPEPVTVSWNSGALTSGVHTFPAVLQSSGLYSLSSVVTVPSSSLGTQTYICNVNHKPSNTKVDKKVEPKSCDKTHTCPPCPAPDLLGDDSVFLFPPKPKDTLMISRTPEVTCVVVDVSDEDGEVKFNWYVDGVEVHNAKTKPREEQYNSTYRVVSVLTVLHQDWLNGKEYKCKVSNKALPRPIEKTISKAKGQPREPQVYTLPPSRDELTKNQVSLTCLVKGFYPSDIAVEWESNGQPENNYKTTPPVLDSDGSFFLYSKLTVDKSRWQQGNVFSCSVMHEALHNHYTQESLSLSP light: not shown | 53
10 | IL6R-BP206/IL6R-L (antibody, human IgG1, kappa, Anti-human IL-6 receptor IgG1) heavy: QVQLQESGPGLVKPSETLSLTCAVSGHSISHDHAWSWVRQPPGEGLEWIGFISYSGITNYNPSLQGRVTISRDNSKNTLYLQMNSLRAEDTAVYYCARSLARTTAMDYWGEGTLVTVSSASTKGPSVFPLAPSSKSTSGGTAALGCLVKDYFPEPVTVSWNSGALTSGVHTFPAVLQSSGLYSLSSVVTVPSSSLGTQTYICNVNHKPSNTKVDKKVEPKSCDKTHTCPPCPAPDLLGGDSVFLFPPKPKDTLMISRTPEVTCVVVDVSHEDGEVKFNWYVDGVEVHNAKTKPREEQYNSTYRVVSVLTVLHQDWLNGKEYKCKVSNKALPRPIEKTISKAKGQPREPQVYTLPPSRDELTKNQVSLTCLVKGFYPSDIAVEWESNGQPENNYKTTPPVLDSDGSFFLYSKLTVDKSRWQQGNVFSCSVMHEALHNHYTQESLSLSP light: not shown | 69
11 | IL6R-BP195/IL6R-L (antibody, human IgG1, kappa, Anti-human IL-6 receptor IgG1) heavy: QVQLQESGPGLVKPSETLSLTCAVSGHSISHDHAWSWVRQPPGEGLEWIGFISYSGITNYNPSLQGRVTISRDNSKNTLYLQMNSLRAEDTAVYYCARSLARTTAMDYWGEGTLVTVSSASTKGPSVFPLAPSSKSTSGGTAALGCLVKDYFPEPVTVSWNSGALTSGVHTFPAVLQSSGLYSLSSVVTVPSSSLGTQTYICNVNHKPSNTKVDKKVEPKSCDKTHTCPPCPAPDYLGDDSVFLFPPKPKDTLMISRTPEVTCVVVDVSDEDGEVKFNWYVDGVEVHNAKTKPREEQDNSTYRVVSVLTVLHQDWLNGKEYKCKVSNAALPKPIEKTISKAKGQPREPQVYTLPPSRDELTKNQVSLTCLVKGFYPSDIAVEWESNGQPENNYKTTPPVLDSDGSFFLYSKLTVDKSRWQQGNVFSCSVMHEALHNHYTQESLSLSP light: not shown | 31
12 | IL6R-BP198/IL6R-L (antibody, human IgG1, kappa, Anti-human IL-6 receptor IgG1) heavy: QVQLQESGPGLVKPSETLSLTCAVSGHSISHDHAWSWVRQPPGEGLEWIGFISYSGITNYNPSLQGRVTISRDNSKNTLYLQMNSLRAEDTAVYYCARSLARTTAMDYWGEGTLVTVSSASTKGPSVFPLAPSSKSTSGGTAALGCLVKDYFPEPVTVSWNSGALTSGVHTFPAVLQSSGLYSLSSVVTVPSSSLGTQTYICNVNHKPSNTKVDKKVEPKSCDKTHTCPPCPAPDYLGGDSVFLFPPKPKDTLMISRTPEVTCVVVDVSDEDGEVKFNWYVDGVEVHNAKTKPREEQYNSTYRVVSVLTVLHQDWLNGKEYKCKVSNAALPKPIEKTISKAKGQPREPQVYTLPPSRDELTKNQVSLTCLVKGFYPSDIAVEWESNGQPENNYKTTPPVLDSDGSFFLYSKLTVDKSRWQQGNVFSCSVMHEALHNHYTQESLSLSP light: not shown | 44
